Source: the supplement of paper PMC10724198
± gives the standard deviation of the averaged measurements.

System: Saccharomyces cerevisiae
Experiment: protein stability index of tFT-peptide fusion (C-terminal peptide) (PSI (0-1 scale)); higher = more stable (slower turnover)
Settings: genetic background: wild type; temperature: 30 C
Experimental: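 Multiplexed protein stability (MPS) profiling in S. cerevisiae. Random 12-aa peptides (tFT-X12 library) are fused to the C-terminus of a sfGFP-mCherry tandem fluorescent timer, after mCherry and a GGGS linker. Cells are FACS-sorted into 8 mCherry/sfGFP bins and deep-sequenced. The protein stability index (PSI) is the read-weighted bin average, scaled from 0 (unstable) to 1 (stable). Only peptides with >10 reads are reported; cells were grown at 30 °C in SC-His with glucose.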
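Note: PSI is a weighted mean of sequencing reads over stability bins, variants kept only with over 10 reads, mCherry proximal and sfGFP distal, peptide attached via GGGS linker.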

| Sequence | protein stability index |
| --- | --- |
| KKQKKKKSTKRN | 0.722 ± 0.038 |
| LLPSAAPPPQFL | 0.686 ± 0.035 |
| CVAACSGHAAVG | 0.692 ± 0.017 |
| EGSPIVNSLALD | 0.668 ± 0.017 |
| HLPASLHLDYSI | 0.675 ± 0.043 |
| PPPLPRPRSTAL | 0.674 ± 0.043 |
| APPPMPLPLIPL | 0.633 ± 0.04 |
| CRVNSVRPVYPS | 0.7079 ± 0.0049 |
| STLPTHQLPPHS | 0.624 ± 0.022 |
| PSLSPYPLQPRY | 0.751 ± 0.034 |
| GYFHADYIPLSY | 0.7474 ± 0.0029 |
| MRAIRPGHSDLV | 0.629 ± 0.043 |
| VTLRASGQVFPF | 0.7891 ± 0.0069 |
| VIEWFVRGRVGG | 0.7032 ± 0.00085 |
| MWVRKPNGNGSF | 0.6877 ± 0.0055 |
| IRYEVVDLEPRG | 0.693 ± 0.15 |
| GRSHYFLSILRI | 0.5268 ± 0.0018 |
| QTPPPRLPPRPP | 0.669 ± 0.062 |
| GVERLGGVLYVL | 0.6274 ± 0.0015 |
| YKGGDEVKTKKK | 0.656 ± 0.035 |
| LITRLLCSPCSQ | 0.605 ± 0.0059 |

| Sequence | protein stability index |
| --- | --- |
| NRRGGTLLATLF | 0.659 ± 0.017 |
| SRRDRGHWSVRS | 0.6198 ± 0.0039 |
| ASCGTAGPCVPF | 0.708 ± 0.019 |
| REGGDPPDGGTG | 0.734 ± 0.039 |
| KKKQPKKNQNPT | 0.767 ± 0.075 |
| CCGQRYACVFQT | 0.651 ± 0.029 |
| LPPPHPPFPPRF | 0.715 ± 0.059 |
| GNKKENEKKEKK | 0.734 ± 0.022 |
| LRCLTIILYSMV | 0.549 ± 0.033 |
| LPFRPWLPRSLI | 0.68 ± 0.059 |
| GALEMNVCVPWL | 0.65 ± 0.017 |
| RHGDRLEHPIPV | 0.611 ± 0.031 |
| PSSPTYVPPSFL | 0.6754 ± 0.0022 |
| RQEFSGAPPHLI | 0.697 ± 0.029 |
| NTSKEDENKARI | 0.707 ± 0.019 |
| LGKIYPFYSILL | 0.7038 ± 0.002 |
| LGVGGRWGVPGA | 0.715 ± 0.04 |
| SPLLVLTPLFPP | 0.651 ± 0.074 |
| PPPVVLPSTLLS | 0.6665 ± 0.0014 |
| VVGRLRGNWGSI | 0.745 ± 0.039 |
| GYRGMERGEGGG | 0.723 ± 0.068 |

| Sequence | protein stability index |
| --- | --- |
| DGGALGVKGCDR | 0.694 ± 0.054 |
| HATFSLFLASCY | 0.625 ± 0.011 |
| LQHCSAPLLTNS | 0.74 ± 0.085 |
| QSCQSKGSEVGE | 0.696 ± 0.054 |
| QYVYIPGLSNLC | 0.632 ± 0.019 |
| ASCHFSILPTRL | 0.67 ± 0.032 |
| PPLPPPQDPRLP | 0.7 ± 0.097 |
| PPPPPLPPAPPP | 0.558 ± 0.022 |
| RPFVSSAGSQFP | 0.808 ± 0.046 |
| QNQTYQKQKSKE | 0.71 ± 0.068 |
| PPVLAPCLPLTG | 0.681 ± 0.067 |
| VVVLCGGSGGVG | 0.652 ± 0.059 |
| SKKKRQNQLIKM | 0.7527 ± 0.0032 |
| RCCVPCWFMTLV | 0.555 ± 0.021 |
| PPPPRPASPGSP | 0.622 ± 0.065 |
| SWGDVGSWLGGV | 0.663 ± 0.0068 |
| KKKKTVHKKNRR | 0.699 ± 0.022 |
| SAAVDSPIFPSS | 0.6916 ± 0.00075 |
| HVPGKWTLGFGI | 0.761 ± 0.054 |
| WVFRHSTMNNEN | 0.672 ± 0.094 |
| AHVLQRVRLLSR | 0.618 ± 0.023 |

| Sequence | protein stability index |
| --- | --- |
| SCKARPLVAASD | 0.66 ± 0.044 |
| PHAPHPPALTPP | 0.623 ± 0.072 |
| CLLLPPLATFPR | 0.695 ± 0.017 |
| PKRHLTFLPRGV | 0.662 ± 0.036 |
| AVDSGSLERIRM | 0.69037 ± 0.00042 |
| AWRVVRIFFCGG | 0.72 ± 0.15 |
| GERGAYVVGVRW | 0.782 ± 0.019 |
| AIRENISIRLNC | 0.482 ± 0.026 |
| ELSLSCPPLETP | 0.768 ± 0.034 |
| GGLVPPLEGLVR | 0.677 ± 0.037 |
| DLTITFYKSGQL | 0.715 ± 0.032 |
| LLPSAAKLTLLP | 0.77 ± 0.07 |
| CPIASSRHSVGL | 0.823 ± 0.12 |
| LISRLVSSLIHT | 0.621 ± 0.015 |
| CGLRVAGVLCWG | 0.465 ± 0.05 |
| ICSFVFTTLFGG | 0.6442 ± 0.0026 |
| GRGSAGPARVST | 0.697 ± 0.024 |
| ITSFIKSDKSSK | 0.696 ± 0.029 |
